Assay results reported in the supplement of paper PMC5998384.

Columns and labels:
[1] = tested on: HeLa Kyoto; experiment: solubility in G1/S (NP-40 vs SDS abundance) (log2 ratio); higher = more soluble; details: cell cycle stage: G1/S
[2] = tested on: HeLa Kyoto; experiment: melting temperature (median over replicates), in situ; higher = more thermally stable
[3] = tested on: HeLa Kyoto; experiment: solubility change mitosis vs G1/S (difference of NP-40 vs SDS log2 ratios) (log2 ratio difference); higher = more soluble in mitosis
[4] = tested on: HeLa Kyoto; experiment: thermal stability score vs G1/S (z-score of summed log2 fold changes over temperatures); higher = more thermally stable than in G1/S
[5] = cell cycle stage: early G1 (4.5 h after nocodazole release)
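For melting temperature (median over replicates), in situ in this document: HeLa Kyoto cells synchronized by double thymidine or nocodazole block, proteins quantified by TMT10plex mass spectrometry, three independent biological replicates.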
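For solubility change mitosis vs G1/S (difference of NP-40 vs SDS log2 ratios) in this document: synchronized HeLa Kyoto cells (double thymidine block for G1/S, nocodazole release for mitosis), protein amounts in NP-40 versus SDS lysates quantified by mass spectrometry, three biological replicates.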
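For solubility in G1/S (NP-40 vs SDS abundance) in this document: HeLa Kyoto cells arrested at G1/S by double thymidine block, proteins quantified by TMT10plex mass spectrometry in mild NP-40 versus SDS extracts, three biological replicates.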
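For thermal stability score vs G1/S (z-score of summed log2 fold changes over temperatures) in this document: synchronized HeLa Kyoto cells, proteins quantified by TMT10plex mass spectrometry, three biological replicates, mitosis taken 0.5 h after nocodazole release, G1/S directly after double thymidine block.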

| Sequence | solubility in G1/S (log2) [1] | melting temperature ([2]; cell cycle stage: G1/S) | melting temperature ([2]; cell cycle stage: mitosis) | solubility change mitosis (log2) [3] | thermal stability score [4, 5] | thermal stability score ([4]; cell cycle stage: mitosis) |
| --- | --- | --- | --- | --- | --- | --- |
| MKVHMHTKFCLICLLTFIFHHCNHCHEEHDHGPEALHRQHRGMTELEPSKFSKQAAENEKKYYIEKLFERYGENGRLSFFGLEKLLTNLGLGERKVVEINHEDLGHDHVSHLDILAVQEGKHFHSHNHQHSHNHLNSENQTVTSVSTKRNHKCDPEKETVEVSVKSDDKHMHDHNHRLRHHHRLHHHLDHNNTHHFHNDSITPSERGEPSNEPSTETNKTQEQSDVKLPKGKRKKKGRKSNENSEVITPGFPPNHDQGEQYEHNRVHKPDRVHNPGHSHVHLPERNGHDPGRGHQDLDPDNEGELRHTRKREAPHVKNNAIISLRKDLNEDDHHHECLNVTQLLKYYGHGANSPISTDLFTYLCPALLYQIDSRLCIEHFDKLLVEDINKDKNLVPEDEANIGASAWICGIISITVISLLSLLGVILVPIINQGCFKFLLTFLVALAVGTMSGDALLHLLPHSQGGHDHSHQHAHGHGHSHGHESNKFLEEYDAVLKGLVALGGIYLLFIIEHCIRMFKHYKQQRGKQKWFMKQNTEESTIGRKLSDHKLNNTPDSDWLQLKPLAGTDDSVVSEDRLNETELTDLEGQQESPPKNYLCIEEEKIIDHSHSDGLHTIHEHDLHAAAHNHHGENKTVLRKHNHQWHHKHSHHSHGPCHSGSDLKETGIANIAWMVIMGDGIHNFSDGLAIGAAFSAGLTGGISTSIAVFCHELPHELGDFAVLLKAGMTVKQAIVYNLLSAMMAYIGMLIGTAVGQYANNITLWIFAVTAGMFLYVALVDMLPEMLHGDGDNEEHGFCPVGQFILQNLGLLFGFAIMLVIALYEDKIVFDIQF [SLC39A10] | -0.0606 | 59.3 °C | 59 °C | -0.0208 | -2.73 | -0.381 |
| MKVNRETKRLYVGGLSQDISEADLQNQFSRFGEVSDVEIITRKDDQGNPQKVFAYINISVAEADLKKCMSVLNKTKWKGGTLQIQLAKESFLHRLAQEREAAKAKKEESTTGNANLLEKTGGVDFHMKAVPGTEVPGHKNWVVSKFGRVLPVLHLKNQHKRKIIKYDPSKYCHNLKKIGEDFSNTIPISSLTWELEGGNDPMSKKRRGEFSDFHGPPKKIIKVQKDESSTGSLAMSTRPRRVIERPPLTQQQAAQKRTCDSITPSKSSPVPVSDTQKLKNLPFKTSGLETAKKRNSISDDDTDSEDELRMMIAKEENLQRTTQPSINESESDPFEVVRDDFKSGVHKLHSLIGLGIKNRVSCHDSDDDIMRNDREYDSGDTDEIIAMKKNVAKVKNSTEFSQMEKSTKKTSFKNRENCELSDHCIKLQKRKSNVESALSHGLKSLNRKSPSHSSSSEDADSASELADSEGGEEYNAMMKNCLRVNLTLADLEQLAGSDLKVPNEDTKSDGPETTTQCKFDRGSKSPKTPTGLRRGRQCIRPAEIVASLLEGEENTCGKQKPKENNLKPKFQAFKGVGCLYEKESMKKSLKDSVASNNKDQNSMKHEDPSIISMEDGSPYVNGSLGEVTPCQHAKKANGPNYIQPQKRQTTFESQDRKAVSPSSSEKRSKNPISRPLEGKKSLSLSAKTHNIGFDKDSCHSTTKTEASQEERSDSSGLTSLKKSPKVSSKDTREIKTDFSLSISNSSDVSAKDKHAEDNEKRLAALEARQKAKEVQKKLVHNALANLDGHPEDKPTHIIFGSDSECETEETSTQEQSHPGEEWVKESMGKTSGKLFDSSDDDESDSEDDSNRFKIKPQFEGRAGQKLMDLQSHFGTDDRFRMDSRFLETDSEEEQEEVNEKKTAEEEELAEEKKKALNVVQSVLQINLSNSTNRGSVAAKKFKDIIHYDPTKQDHATYERKRDDKPKESKAKRKKKREEAEKLPEVSKEMYYNIAMDLKEIFQTTKYTSEKEEGTPWNEDCGKEKPEEIQDPAALTSDAEQPSGFTFSFFDSDTKDIKEETYRVETVKPGKIVWQEDPRLQDSSSEEEDVTEETDHRNSSPGEASLLEKETTRFFFFSKNDERLQGSDLFWRGVGSNMSRNSWEARTTNLRMDCRKKHKDAKRKMKPK [NOL8] | -1.85 | 51.3 °C | 51.3 °C | 1.08 | 1.32 | 2.26 |
| MKYILVTGGVISGIGKGIIASSVGTILKSCGLHVTSIKIDPYINIDAGTFSPYEHGEVFVLDDGGEVDLDLGNYERFLDIRLTKDNNLTTGKIYQYVINKERKGDYLGKTVQVVPHITDAIQEWVMRQALIPVDEDGLEPQVCVIELGGTVGDIESMPFIEAFRQFQFKVKRENFCNIHVSLVPQPSSTGEQKTKPTQNSVRELRGLGLSPDLVVCRCSNPLDTSVKEKISMFCHVEPEQVICVHDVSSIYRVPLLLEEQGVVDYFLRRLDLPIERQPRKMLMKWKEMADRYDRLLETCSIALVGKYTKFSDSYASVIKALEHSALAINHKLEIKYIDSADLEPITSQEEPVRYHEAWQKLCSAHGVLVPGGFGVRGTEGKIQAIAWARNQKKPFLGVCLGMQLAVVEFSRNVLGWQDANSTEFDPTTSHPVVVDMPEHNPGQMGGTMRLGKRRTLFQTKNSVMRKLYGDADYLEERHRHRFEVNPVWKKCLEEQGLKFVGQDVEGERMEIVELEDHPFFVGVQYHPEFLSRPIKPSPPYFGLLLASVGRLSHYLQKGCRLSPRDTYSDRSGSSSPDSEITELKFPSINHD [CTPS1] | -0.00383 | 55.3 °C | 55.3 °C | -0.0782 | 0.505 | -2.34 |
| MLADLGLIGTIGEDDEVPVEPESDSGDEEEEGPIVLGRRQKALGKNRSADFNPDFVFTEKEGTYDGSWALADVMSQLKKKRAATTLDEKIEKVRKKRKTEDKEAKSGKLEKEKEAKEGSEPKEQEDLQENDEEGSEDEASETDYSSADENILTKADTLKVKDRKKKKKKGQEAGGFFEDASQYDENLSFQDMNLSRPLLKAITAMGFKQPTPIQKACIPVGLLGKDICACAATGTGKTAAFALPVLERLIYKPRQAPVTRVLVLVPTRELGIQVHSVTRQLAQFCNITTCLAVGGLDVKSQEAALRAAPDILIATPGRLIDHLHNCPSFHLSSIEVLILDEADRMLDEYFEEQMKEIIRMCSHHRQTMLFSATMTDEVKDLASVSLKNPVRIFVNSNTDVAPFLRQEFIRIRPNREGDREAIVAALLTRTFTDHVMLFTQTKKQAHRMHILLGLMGLQVGELHGNLSQTQRLEALRRFKDEQIDILVATDVAARGLDIEGVKTVINFTMPNTIKHYVHRVGRTARAGRAGRSVSLVGEDERKMLKEIVKAAKAPVKARILPQDVILKFRDKIEKMEKDVYAVLQLEAEEKEMQQSEAQINTAKRLLEKGKEAVVQEPERSWFQTKEERKKEKIAKALQEFDLALRGKKKRKKFMKDAKKKGEMTAEERSQFEILKAQMFAERLAKRNRRAKRARAMPEEEPVRGPAKKQKQGKKSVFDEELTNTSKKALKQYRAGPSFEERKQLGLPHQRRGGNFKSKSRYKRRK [DDX27] | -2.35 | 52.4 °C | 52.2 °C | 1.15 | 1.57 | 2.15 |
| MLALISRLLDWFRSLFWKEEMELTLVGLQYSGKTTFVNVIASGQFSEDMIPTVGFNMRKVTKGNVTIKIWDIGGQPRFRSMWERYCRGVNAIVYMIDAADREKIEASRNELHNLLDKPQLQGIPVLVLGNKRDLPNALDEKQLIEKMNLSAIQDREICCYSISCKEKDNIDITLQWLIQHSKSRRS [ARL8B] | -0.0397 | 55.2 °C | 56 °C | -0.232 | -1.93 | -1.85 |
| MLCSLLLCECLLLVAGYAHDDDWIDPTDMLNYDAASGTMRKSQAKYGISGEKDVSPDLSCADEISECYHKLDSLTYKIDECEKKKREDYESQSNPVFRRYLNKILIEAGKLGLPDENKGDMHYDAEIILKRETLLEIQKFLNGEDWKPGALDDALSDILINFKFHDFETWKWRFEDSFGVDPYNVLMVLLCLLCIVVLVATELWTYVRWYTQLRRVLIISFLFSLGWNWMYLYKLAFAQHQAEVAKMEPLNNVCAKKMDWTGSIWEWFRSSWTYKDDPCQKYYELLLVNPIWLVPPTKALAVTFTTFVTEPLKHIGKGTGEFIKALMKEIPALLHLPVLIIMALAILSFCYGAGKSVHVLRHIGGPESEPPQALRPRDRRRQEEIDYRPDGGAGDADFHYRGQMGPTEQGPYAKTYEGRREILRERDVDLRFQTGNKSPEVLRAFDVPDAEAREHPTVVPSHKSPVLDTKPKETGGILGEGTPKESSTESSQSAKPVSGQDTSGNTEGSPAAEKAQLKSEAAGSPDQGSTYSPARGVAGPRGQDPVSSPCG [CLCC1] | -0.212 | 56 °C | 58.6 °C | -0.123 | -0.638 | 1.19 |
| MLCVGRLGGLGARAAALPPRRAGRGSLEAGIRARRVSTSWSPVGAAFNVKPQGSRLDLFGERRGLFGVPELSAPEGFHIAQEKALRKTELLVDRACSTPPGPQTVLIFDELSDSLCRVADLADFVKIAHPEPAFREAAEEACRSIGTMVEKLNTNVDLYQSLQKLLADKKLVDSLDPETRRVAELFMFDFEISGIHLDKEKRKRAVDLNVKILDLSSTFLMGTNFPNKIEKHLLPEHIRRNFTSAGDHIIIDGLHAESPDDLVREAAYKIFLYPNAGQLKCLEELLSSRDLLAKLVGYSTFSHRALQGTIAKNPETVMQFLEKLSDKLSERTLKDFEMIRGMKMKLNPQNSEVMPWDPPYYSGVIRAERYNIEPSLYCPFFSLGACMEGLNILLNRLLGISLYAEQPAKGEVWSEDVRKLAVVHESEGLLGYIYCDFFQRADKPHQDCHFTIRGGRLKEDGDYQLPVVVLMLNLPRSSRSSPTLLTPSMMENLFHEMGHAMHSMLGRTRYQHVTGTRCPTDFAEVPSILMEYFANDYRVVNQFARHYQTGQPLPKNMVSRLCESKKVCAAADMQLQVFYATLDQIYHGKHPLRNSTTDILKETQEKFYGLPYVPNTAWQLRFSHLVGYGARYYSYLMSRAVASMVWKECFLQDPFNRAAGERYRREMLAHGGGREPMLMVEGMLQKCPSVDDFVSALVSDLDLDFETFLMDSE [MIPEP] | -0.0439 | 51.2 °C | 50.4 °C | -0.0647 | 0.154 | 0.0672 |
| MLFNSVLRQPQLGVLRNGWSSQYPLQSLLTGYQCSGNDEHTSYGETGVPVPPFGCTFSSAPNMEHVLAVANEEGFVRLYNTESQSFRKKCFKEWMAHWNAVFDLAWVPGELKLVTAAGDQTAKFWDVKAGELIGTCKGHQCSLKSVAFSKFEKAVFCTGGRDGNIMVWDTRCNKKDGFYRQVNQISGAHNTSDKQTPSKPKKKQNSKGLAPSVDFQQSVTVVLFQDENTLVSAGAVDGIIKVWDLRKNYTAYRQEPIASKSFLYPGSSTRKLGYSSLILDSTGSTLFANCTDDNIYMFNMTGLKTSPVAIFNGHQNSTFYVKSSLSPDDQFLVSGSSDEAAYIWKVSTPWQPPTVLLGHSQEVTSVCWCPSDFTKIATCSDDNTLKIWRLNRGLEEKPGGDKLSTVGWASQKKKESRPGLVTVTSSQSTPAKAPRAKCNPSNSSPSSAACAPSCAGDLPLPSNTPTFSIKTSPAKARSPINRRGSVSSVSPKPPSSFKMSIRNWVTRTPSSSPPITPPASETKIMSPRKALIPVSQKSSQAEACSESRNRVKRRLDSSCLESVKQKCVKSCNCVTELDGQVENLHLDLCCLAGNQEDLSKDSLGPTKSSKIEGAGTSISEPPSPISPYASESCGTLPLPLRPCGEGSEMVGKENSSPENKNWLLAMAAKRKAENPSPRSPSSQTPNSRRQSGKKLPSPVTITPSSMRKICTYFHRKSQEDFCGPEHSTEL [DTL] | -0.00542 | 50.4 °C | 50.1 °C | -0.0846 | -1.36 | -1.25 |
